Data on one protein can be found in article PMC2676678.

Holding throughout (settings): holding potential -50 mV; Na+ medium (about 96 mM Na+); Hill coefficient about 1
Substrate in data set [1]: N[C@H](Cc1ccc(O)cc1)C(=O)O
The data set is classed as cell-based, Drosophila melanogaster.

Substrate in data set [2]: N[C@@H](Cc1c[nH]cn1)C(=O)O
In kind it is cell-based, Drosophila melanogaster.

Substrate in data set [3]: CSCC[C@@H](N)C(=O)O
In kind it is cell-based, Drosophila melanogaster.

Substrate in data set [4]: N[C@@H](Cc1ccccc1)C(=O)O
In kind it is cell-based, Drosophila melanogaster.

Substrate in data set [5]: N[C@@H](Cc1ccc(O)cc1)C(=O)O
In kind it is cell-based, Drosophila melanogaster.

Substrate in data set [6]: N[C@@H](Cc1ccc(O)c(O)c1)C(=O)O
The data set is classed as cell-based, Drosophila melanogaster.

Substrate in data set [7]: N[C@@H](CS)C(=O)O
The data set is classed as cell-based, Drosophila melanogaster.

Substrate in data set [8]: CSCC[C@H](N)C(=O)O
The data set is classed as cell-based, Drosophila melanogaster.

Substrate in data set [9]: N[C@H](CS)C(=O)O
The data set is classed as cell-based, Drosophila melanogaster.

Substrate in data set [10]: C[C@H](N)C(=O)O
Description: cells, lysate or membranes.

Substrate in data set [11]: CC(C)C[C@@H](N)C(=O)O
The data set is described as follows: cells, lysate or membranes.

Substrate in data set [12]: N[C@H](CO)C(=O)O
Description: cells, lysate or membranes.

Substrate in data set [13]: N[C@H](Cc1ccccc1)C(=O)O
Description: cells, lysate or membranes.

Substrate in data set [14]: CC(C)C[C@H](N)C(=O)O
Description: cells, lysate or membranes.

Substrate in data set [15]: O=C(O)[C@@H]1CCCN1
The data set is described as follows: cells, lysate or membranes.

Substrate in data set [16]: CC(C)[C@@H](N)C(=O)O
Description: cells, lysate or membranes.

Substrate in data set [17]: N[C@@H](CO)C(=O)O
Description: cells, lysate or membranes.

Substrate in data set [18]: CC(C)[C@H](N)C(=O)O
The data set is described as follows: cells, lysate or membranes.

Substrate in data set [19]: O=C(O)[C@H]1CCCN1
Description: cells, lysate or membranes.

Substrate in data set [20]: CC[C@H](C)[C@H](N)C(=O)O
The data set is described as follows: cells, lysate or membranes.

B1: DmNAT1 (Drosophila melanogaster) (protein)
chain: MELKGVQPSNGSSNGSGNGATNAASTEKTDAEKPTAERTNWGNGLEFLMSCISVSVGLGNVWRFPFTAYENGGGAFLIPYIIVLFLIGKPMYYLEMIMGQFTSQGTVKIWSVVPGFVGVGYGQAFGTICIISYYSSLLALTLYYLFVSFQSELPWSYCRDEWTNCVNSRPQEYVDNLLTGVSLANESARNLSGIVANDETEKLQSSSELYFLNVVIKEKLDISDGVGDPDWKLTLALFVAWVVIFLVIMRGVKSSGKAAYFLALFPYVVLFVLLIRAVTLEGARDGILFFLEPQWGELLNPTVWKEAVVQCFFSLAVGSGPIIMFASYNRFDHGIYRDAMIVTTLDTLTSLLGGITIFAILGNLAHNLQIENIRDVVRSGTGLAFISYPDAISKFQAVPQLFSVLFFFMLFVLGIGSIVALQSTIVTIICDQFKGWKYWKVALTTSVCGFLMGLVYVTPGGQWILTLVDFYGGTYVVFILAIFELAGIVWVYGLQNFCDDIEFMCNRRVSLYWRVCWSFFTPVMMIIIFIYSMVTIEPIKYSELYFPEAANIAGWLLFAIGAAQFPLWGLWYISRHPQGTYWKSLKASLKPSDRWGPANPEIRREWVIFKNQKAAQRATQKDTSKLGFFWRKVANFCGSNK
Consider B1, for which the K0.5 in data set [1] worked out at 64.3 ± 15.3 µM; in data set [2], 188.5 ± 37.9 µM; in [3] it was 24.7 ± 9.9 µM; in data set [4], 58.3 ± 5.3 µM; in data set [5], 96.8 ± 17.9 µM; in [6], 242.3 ± 57.9 µM. In addition, the K0.5 in data set [7] stood at 199.1 ± 18.8 µM; in data set [8] it was 39.8 ± 12.7 µM; in data set [9], 141.0 ± 28.6 µM; in data set [10], 255.6 ± 76.8 µM; in data set [11], 92.2 ± 34.8 µM; in data set [12], 128.1 ± 21.3 µM. Further, the K0.5 in [13] was 55.2 ± 10.3 µM; in data set [14] it was 126.2 ± 39.8 µM; in data set [15], 127.6 ± 44.9 µM; in [16], 170.2 ± 38.3 µM; in [17], 119.7 ± 18.6 µM; in [18] it was 96.8 ± 20.2 µM. Further, the values for the K0.5 in data set [19] and in data set [20] were 142.4 ± 38.5 µM and 130.1 ± 37.5 µM, respectively.
